From paper doi:10.1101/2020.02.06.938233 (bioRxiv, 2020) come the findings set out here.

The data set concerns the molecule itself. In words: FRET or BRET.

B1: UL44(2-433), wild type, as CFP, YFP or RLuc fusion in HEK 293T cells (natural protein)
chain: DRKTRLSEPPTLALRLKPYKTAIQQLRSVIRALKENTTVTFLPTPSLILQTVRSHCVSKITFNSSCLYITDKSFQPKTINNSTPLLGNFMYLTSSKDLTKFYVQDISDLSAKISMCAPDFNMEFSSACVHGQDIVRESENSAVHVDLDFGVVADLLKWIGPHTRVKRNVKKAPCPTGTVQILVHAGPPAIKFILTNGSELEFTANNRVSFHGVKNMRINVQLKNFYQTLLNCAVTKLPCTLRIVTEHDTLLYVASRNGLFAVENFLTEEPFQRGDPFDKNYVGNSGKSRGGGGGGGSLSSLANAGGLHDDGPGLDNDLMNEPMGLGGLGGGGGGGGKKHDRGGGGGSGTRKMSSGGGGGDHDHGLSSKEKYEQHKITSYLTSKGGSGGGGGGGGGGLDRNSGNYFNDAKEESDSEDSVTFEFVPNTKKQKCG
As to B1, the BRET ratio came out at 0.36 ± 0.1.
